From patent publication US20020076785
“Also recorded” adds a separate entry of the source.

Tests used:
[1] = target: recombinant C. elegans Rac (UniProt Q03206)
[2] = target: recombinant C. elegans Cdc42 (UniProt Q05062)
[3] = target: recombinant C. elegans Rho (UniProt Q22038)
Chain of recombinant C. elegans Rho (Q22038 whole entry): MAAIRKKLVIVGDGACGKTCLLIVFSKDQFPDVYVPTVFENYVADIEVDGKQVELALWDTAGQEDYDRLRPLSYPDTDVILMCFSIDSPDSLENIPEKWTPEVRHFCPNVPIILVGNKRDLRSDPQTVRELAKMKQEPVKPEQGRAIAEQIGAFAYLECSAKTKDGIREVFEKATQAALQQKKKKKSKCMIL

Chain of recombinant C. elegans Cdc42 (Q05062 whole entry): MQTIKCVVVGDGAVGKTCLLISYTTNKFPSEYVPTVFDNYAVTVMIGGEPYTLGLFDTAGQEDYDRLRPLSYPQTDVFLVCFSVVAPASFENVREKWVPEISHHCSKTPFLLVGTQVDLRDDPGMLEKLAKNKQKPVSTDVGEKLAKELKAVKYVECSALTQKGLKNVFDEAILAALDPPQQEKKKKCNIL

With “GST-CYK-4-GAP (GST fused to the GAP domain of CYK-4, amino acids 407-681)” the GTP hydrolysis [1] was “The GAP domain of CYK-4 promotes GTP hydrolysis by all three tested GTPases; also recorded: the CYK-4 GAP domain is more active towards Rac and Cdc42 than towards Rho”, the GTP hydrolysis [2] was “The GAP domain of CYK-4 promotes GTP hydrolysis by all three tested GTPases; also recorded: the CYK-4 GAP domain is more active towards Rac and Cdc42 than towards Rho” and the GTP hydrolysis [3] was “The GAP domain of CYK-4 promotes GTP hydrolysis by all three tested GTPases; also recorded: the CYK-4 GAP domain is more active towards Rac and Cdc42 than towards Rho”.
